Numbering of substitutions follows the chain as printed. Numbers in names are those of the source. Where two headings read alike, the source gives them in different places.
Assays:
[1] = molecular target: the molecule itself; assay: reducing SDS-PAGE and immunoblot
[2] = molecular target: the molecule itself; assay: non-reducing SDS-PAGE and Western blot
4M urea SDS-PAGE = molecular target: the molecule itself; assay: 4M urea SDS-PAGE
[3] = molecular target: the molecule itself
[4] = molecular target: the molecule itself; assay: reducing SDS-PAGE and immunoblot of a membrane preparation
non-reducing SDS-PAGE = molecular target: the molecule itself; assay: non-reducing SDS-PAGE

B1: PfP2-HA of P. falciparum 3D7 P2-HA glmS transgenic parasites (natural protein, Plasmodium falciparum 3D7, UniProt O00806 1-112, looked up)
chain: MAMKYVAAYLMCVLGGNENPSTKEVKNVLGAVNADVEDEVLNNFIDSLKGKSCHELITDGLKKLQNIGGGVAAAPAGAAAVETAEAKKEDKKEEKKEEEEEEEDDLGFSLFG
stoichiometry N [1]: 4

B2: PfP2C12A (Clone 1, C12A) (natural protein, Plasmodium falciparum 3D7, UniProt O00806 1-112, looked up)
chain: B1 chain with C12A
stoichiometry N [2]: 2

B3: LAFS-induced denaturation-resistant rec. PfP2 tetramer (natural protein, Plasmodium falciparum 3D7, UniProt O00806 1-112, looked up)
chain: B1 chain
modifications: 11th methionine (Met11) oxidized; Met11 S-O-S Met11 linkages between chains as the paper proposes
stoichiometry N (4M urea SDS-PAGE): 4

B4: LAFS-induced alkylated rec. PfP2 tetramer (natural protein, Plasmodium falciparum 3D7, UniProt O00806 1-112, looked up)
chain: B1 chain
modifications: cysteines alkylated using iodoacetamide (IAA) after reduction with DTT
stoichiometry N [3]: 4

B5: PfP2 of wild type P. falciparum 3D7 parasites (natural protein, UniProt O00806 1-112, looked up)
chain: B1 chain
modifications: 11th methionine (Met11) oxidized in the parasite membrane preparation (ESI MS/MS)
stoichiometry N [4]: 2
stoichiometry N [1]: 4

B6: 6x His tag recombinant PfP2 (P. falciparum 60S stalk ribosomal protein P2) (natural protein, Plasmodium falciparum 3D7, UniProt O00806 1-112, looked up)
chain: B1 chain
stoichiometry N (non-reducing SDS-PAGE): 4
